PMC6330057 (Nature cell biology, 2018)

Molecular target: the molecule itself
Test: negative-stain electron microscopy of fibrils

Row | Protein | binding result
1 | CrSSNA1(20-111) (domain or fragment, Chlamydomonas reinhardtii, UniProt Q9XF62 20-111, looked up) EDLREKREEIIKQLREDDAEKAKITQELQILTKRLAQVNESIARKTETKNEYDKVISETEAAYLKILESSQTLLTVLKREAVNIAKKKQASS | binds
2 | CrSSNA1(1-105) (domain or fragment, Chlamydomonas reinhardtii, UniProt Q9XF62 1-105, looked up) MSAQGQALQNHNNELVKCIEDLREKREEIIKQLREDDAEKAKITQELQILTKRLAQVNESIARKTETKNEYDKVISETEAAYLKILESSQTLLTVLKREAVNIAK | binds
